From PMC10419011, “Dynamics of the Second Extracellular Loop Control Transducer Coupling of Peptide-Activated GPCRs” (International Journal of Molecular Sciences, 2023)

Molecular target: T1, K^18-TAMRA-NPY (5/6-tetramethylrhodamine (TAMRA) on the side chain of Lys18)
T1 construct: neuropeptide Y (NPY) with a TAMRA-carrying lysine at position 18; also called Tam-labeled NPY; TAMRA-labeled peptide ligand; source: synthetic peptide (Fmoc/tBu solid phase, RP-HPLC, purity > 95%)
Assay: fluorescence polarisation; various concentrations of receptor in small DMPC/DHPC bicelles with 50 nM (K^18-TAMRA)-NPY, 1 h at room temperature, measured at 20 °C; sigmoidal dose-response fit
Conditions: both partners purified

Kd: 81.8 ± 5.1 nM
B1: Y2R_A202^45.49C,Δ6Cys-IAP (A202^45.49-P1) (receptor)
chain: MGPIGAEADENQTVEEMKVEQYGPQTTPRGELVPDPEPELIDSTKLIEVQVVLILAYASIILLGVIGNSLVIHVVIKFKSMRTVTNFFIANLAVADLLVNTLALPFTLTYTLMGEWKMGPVLCHLVPYAQGLAVQVSTITLTVIALDRHRAIVYHLESKISKRISFLIIGLAWGISALLASPLAIFREYSLIEIIPDFEIVCCTEKWPGEEKSIYGTVYSLSSLLILYVLPLGIISFSYTRIWSKLKNHVSPGAANDHYHQRRQKTTKMLVSVVVVFAVSWLPLHAFQLAVDIDSQVLDLKEYKLIFTVFHIIAMASTFANPLLYGWMNSNYRKAFLSAFRSEQRLDAIHSEVSVTFKAKKNLEVRKNSGPNDSFTEATNV
modifications: cysteine at position 202 labelled with 3-(2-iodacetamido)-proxyl (IAP), thioether-bound spin label side chain P1
